Laboratory results published in US20080199443A1.

Assays:
[1] = system: Xenopus GDF5 with a T7 epitope tag (GDF5-T7)
[2] = target: Xenopus GDF5 (wild type, full-length open reading frame expressed from injected mRNA) (Xenopus); assay: cell-based or functional assay

Sequence of Xenopus Furin (P29119 whole entry): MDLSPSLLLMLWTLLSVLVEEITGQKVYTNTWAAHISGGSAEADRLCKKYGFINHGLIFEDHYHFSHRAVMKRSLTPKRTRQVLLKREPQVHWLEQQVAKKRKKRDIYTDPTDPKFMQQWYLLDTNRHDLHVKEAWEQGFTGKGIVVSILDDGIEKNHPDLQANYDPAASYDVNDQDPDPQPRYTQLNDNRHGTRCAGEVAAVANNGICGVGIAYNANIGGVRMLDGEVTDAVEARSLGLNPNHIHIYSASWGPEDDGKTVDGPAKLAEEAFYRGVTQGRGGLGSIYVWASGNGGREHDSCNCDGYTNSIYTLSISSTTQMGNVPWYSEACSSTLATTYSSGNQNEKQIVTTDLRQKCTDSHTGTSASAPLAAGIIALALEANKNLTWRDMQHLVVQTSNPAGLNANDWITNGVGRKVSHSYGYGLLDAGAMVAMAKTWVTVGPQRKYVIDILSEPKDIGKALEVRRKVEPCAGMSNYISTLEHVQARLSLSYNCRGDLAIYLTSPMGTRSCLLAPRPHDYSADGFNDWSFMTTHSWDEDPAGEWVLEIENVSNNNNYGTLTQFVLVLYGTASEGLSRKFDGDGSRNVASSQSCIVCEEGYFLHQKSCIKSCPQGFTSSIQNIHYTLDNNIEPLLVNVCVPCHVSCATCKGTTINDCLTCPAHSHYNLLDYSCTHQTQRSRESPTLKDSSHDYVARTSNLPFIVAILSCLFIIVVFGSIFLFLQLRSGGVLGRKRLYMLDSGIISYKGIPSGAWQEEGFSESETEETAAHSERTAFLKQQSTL

Substance | Average DAI (Dorso-Anterior Index), ventralization of Xenopus embryos after co-injection of mRNAs [2] | Average DAI, ventralization of Xenopus embryos; GDF5 mRNA co-injected with Furin and SPC6 mRNAs together [2] | proteolytic processing to the mature peptide; anti-T7 immunoblot of Xenopus oocyte supernatants [1]
Xenopus Furin |  |  | XGDF5 and Vg1 mature peptides could be detected only when mRNAs encoding both Furin and SPC6 were co-injected with the growth factor messages
Xenopus SPC4 (enzyme) | 4.8 DAI |  | 
Xenopus SPC6A |  |  | XGDF5 and Vg1 mature peptides could be detected only when mRNAs encoding both Furin and SPC6 were co-injected with the growth factor messages

Continued, in another order:

Average DAI (Dorso-Anterior Index), ventralization of Xenopus embryos after co-injection of mRNAs [2] | Average DAI, ventralization of Xenopus embryos; GDF5 mRNA co-injected with Furin and SPC6 mRNAs together [2] | Substance | proteolytic processing to the mature peptide; anti-T7 immunoblot of Xenopus oocyte supernatants [1]
4.8 DAI | 2.4 DAI | Xenopus Furin (enzyme) | 
4.9 DAI | 2.4 DAI | Xenopus SPC6A (enzyme) | 
